B1: CPEB3 Ribozyme (parent)
chain: GGGGGCCACAGCAGAAGCGUUCACGUCGCGGCCCCUGUCAGAUUCUGGUGAAUCUGCGAAUUCUGCUGU

Variants of: B1
Assay: self-cleavage, relative activity (ratio to wild type); higher = more cleavage; co-transcriptional

| Variant | self-cleavage |
| --- | --- |
| U20A G56A | 0.184 |
| U20A G56U | 0.217 |
| U20A C57A | 0.195 |
| U20A C57U | 0.152 |
| U20A C57G | 0.092 |
| U20A U44C | 0.139 |
| U20A U44G | 0.204 |
| U20A U44A | 0.15 |
| U20C U67G | 0.164 |
| U20C U67A | 0.233 |
| U20G A59G | 0.204 |
| U20G A59U | 0.176 |
| U20G C66U | 0.216 |
| U21A C22A | 0.132 |
| U21A C22G | 0.0886 |
| U20C G30C | 0.178 |
| U20C G30U | 0.153 |
| U20G U26C | 0.114 |
| U21A A59G | 1 |
| U21A A59C | 0.681 |
| U21A A60C | 0.29 |
| U21A A60U | 0.586 |
| U21A A60G | 0.879 |
| U20G G65A | 0.155 |

| Variant | self-cleavage |
| --- | --- |
| U20G G65U | 0.262 |
| U20C U46G | 0.275 |
| U20C U46A | 0.262 |
| U20C U46C | 0.257 |
| U20C A60G | 0.166 |
| U20C A60U | 0.208 |
| U20C A60C | 0.142 |
| U20A U64A | 0.326 |
| U20A U64G | 0.11 |
| U20A U64C | 0.122 |
| U20A C66A | 0.154 |
| U20A C66U | 0.205 |
| U20A C66G | 0.133 |
| U20C U61A | 0.236 |
| U20C U61C | 0.182 |
| U20C C63A | 0.138 |
| U20C C63U | 0.229 |
| U20C C63G | 0.162 |
| U20A C27U | 0.149 |
| U20A C27G | 0.152 |
| U20G C35A | 0.218 |
| U20G C35G | 0.184 |
| U20G C35U | 0.171 |
| U20G C32U | 0.157 |

| Variant | self-cleavage |
| --- | --- |
| U20G C32A | 0.218 |
| U20C U55A | 0.175 |
| U20A C24U | 0.0896 |
| U20A C24A | 0.203 |
| U20A C39U | 0.125 |
| U20A C39A | 0.169 |
| U21A C29U | 0.413 |
| U21A C29G | 0.445 |
| U20G C63G | 0.21 |
| U20G C63U | 0.246 |
| U20C C27U | 0.114 |
| U20C C27G | 0.136 |
| U20G C29A | 0.198 |
| U20G C29G | 0.128 |
| U20G G31A | 0.155 |
| U20G G31C | 0.134 |
| U20A G37A | 0.13 |
| U20A G37C | 0.156 |
| U20A U43G | 0.123 |
| U20A U43C | 0.154 |
| U20C G37A | 0.102 |
| U20C G37U | 0.114 |
| U20A U26C | 0.106 |
| U20A U26G | 0.182 |

| Variant | self-cleavage |
| --- | --- |
| U20C G28A | 0.117 |
| U20C G28C | 0.133 |
| U20G U36A | 0.13 |
| U20G U36C | 0.0978 |
| U20A C54U | 0.124 |
| U20A C54G | 0.194 |
| U20A G30A | 0.192 |
| U20A G30U | 0.109 |
| U20A G30C | 0.141 |
| U20G U62A | 0.183 |
| U20G U62G | 0.292 |
| U20C U21A | 0.208 |
| U20C U43C | 0.212 |
| U20A G47A | 0.176 |
| U20A U49A | 0.125 |
| U20G U69G | 0.322 |
| U20G U69C | 0.281 |
| U20A A60G | 0.146 |
| U20A A60C | 0.114 |
| U20G G68A | 0.235 |
| U20G G68C | 0.275 |
| U20A G41C | 0.133 |
| U20G U49A | 0.26 |
| U20G U49C | 0.173 |

| Variant | self-cleavage |
| --- | --- |
| U20G U49G | 0.27 |
| U20A C29U | 0.155 |
| U20A C29A | 0.194 |
| U20A C29G | 0.157 |
| U20C G48U | 0.242 |
| U20C G48A | 0.189 |
| U20G G56U | 0.199 |
| U20G G56A | 0.191 |
| U20G G56C | 0.104 |
| U20C U38G | 0.24 |
| U20C U38C | 0.212 |
| U20C U38A | 0.181 |
| U20C G50U | 0.245 |
| U20G U44G | 0.168 |
| U20C G25A | 0.68 |
| U20C G25U | 0.616 |
| U20C G25C | 0.249 |
| U20C G58U | 0.204 |
| U20C G58A | 0.161 |
| U20C G58C | 0.147 |
| U21A | 0.979 |
| U20C G56A | 0.223 |
| U20C | 0.222 |
| U20G | 0.207 |

| Variant | self-cleavage |
| --- | --- |
| U20G G25A | 0.129 |
| U20G G25U | 0.185 |
| U20A A52G | 0.117 |
| U20A A52U | 0.143 |
| U20A A52C | 0.0922 |
| U20A C32U | 0.148 |
| U20A C32A | 0.153 |
| U20A C32G | 0.171 |
| U20G G50C | 0.246 |
| U20G G50A | 0.206 |
| U20A G28C | 0.14 |
| U20A G28U | 0.182 |
| U20A G28A | 0.12 |
| U20G C39G | 0.23 |
| U20G C39A | 0.169 |
| U20G C39U | 0.0993 |
| U20C U69A | 0.124 |
| U20C U69C | 0.427 |
| U20A U61G | 0.137 |
| U20A U61C | 0.137 |
| U20A U61A | 0.123 |
| U20A C22A | 0.152 |
| U20A C22G | 0.119 |
| U20A C22U | 0.176 |

| Variant | self-cleavage |
| --- | --- |
| U20G U67G | 0.152 |
| U20G C27U | 0.0848 |
| U20C G47U | 0.239 |
| U20C G47C | 0.188 |
| U20C G47A | 0.243 |
| U20A A59C | 0.0876 |
| U20A A59G | 0.125 |
| U20A C35G | 0.183 |
| U20A C35A | 0.115 |
| U20C A42G | 0.161 |
| U20A U62A | 0.0929 |
| U20G G28C | 0.145 |
| U20G G28A | 0.186 |
| U20G C24U | 0.144 |
| U20G C24G | 0.146 |
| U20C C34A | 0.176 |
| U20C C34G | 0.139 |
| U20C C34U | 0.13 |
| U21A C27A | 0.447 |
| U21A C27U | 0.162 |
| U20A C34G | 0.196 |
| U20A C34A | 0.196 |
| U20A C34U | 0.0989 |

Reference: the RNAGym collection of RNA variant scans (doi:10.7554/elife.80360)
